Our source for the activity values is US20200131489, “ENGINEERED MEGANUCLEASES SPECIFIC FOR RECOGNITION SEQUENCES IN THE PCSK9 GENE” (Precision BioSciences, Inc., published 2020).

What all share (assay): cell_activity; HEK293 mRNA electroporation, 48 h, mock 0.40%
What all share (conditions): tags: N-terminal SV40 NLS

The target in one data set is T1, PCS 7-8L.262 (synthetic (I-CreI derived, …)).
T1 chain: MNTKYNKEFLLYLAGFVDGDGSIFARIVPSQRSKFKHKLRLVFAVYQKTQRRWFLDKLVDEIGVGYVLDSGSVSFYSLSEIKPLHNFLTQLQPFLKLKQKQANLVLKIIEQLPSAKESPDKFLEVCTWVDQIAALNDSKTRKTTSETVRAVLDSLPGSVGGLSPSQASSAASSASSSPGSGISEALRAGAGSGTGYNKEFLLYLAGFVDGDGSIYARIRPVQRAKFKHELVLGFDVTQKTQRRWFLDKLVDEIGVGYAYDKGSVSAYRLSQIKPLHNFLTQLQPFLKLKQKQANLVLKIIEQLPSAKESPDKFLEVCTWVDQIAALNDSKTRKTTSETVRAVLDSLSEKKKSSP
On the procedure: (§1) In order to directly observe insertions or deletions at the intended PCS 7-8 meganuclease target site, a deep sequencing protocol was used. 2e⁶ HEK 293 cells were electroporated with 5 ug of PCS 7-8 meganuclease mRNA using a BioRad Gene Pulser Xcell according to the manufacturer's instructions. A mock electroporation was also performed with no mRNA. At 48 hours post-transfection, genomic DNA (gDNA) was harvested from cells. The PCS 7-8 locus was amplified by PCR using primers that flank the PCS 7-8 recognition sequence. This amplicon was run on an agarose gel for visual confirmation, extracted using a Macherey-Nagel Nucleospin Gel and PCR Clean-up kit, and sequencing libraries were prepared using the NEBNext Ultra II DNA Library Kit for Illumina from New England Biolabs. The paired-end sequencing libraries were read on an Illumina Miseq DNA sequencer. Sequencing data was analyzed using custom scripts. Reads with start or end points not within 25 bp of the full-length amplicon were removed. The percent of reads with indels was calculated by dividing the number of full-length reads having an indel that incorporated at least one of the middle 8 bp of the recognition sequence by the total number of full-length reads.

Another data set deals with T2, PCS 7-8L.209 (synthetic (I-CreI derived, …)).
T2 chain: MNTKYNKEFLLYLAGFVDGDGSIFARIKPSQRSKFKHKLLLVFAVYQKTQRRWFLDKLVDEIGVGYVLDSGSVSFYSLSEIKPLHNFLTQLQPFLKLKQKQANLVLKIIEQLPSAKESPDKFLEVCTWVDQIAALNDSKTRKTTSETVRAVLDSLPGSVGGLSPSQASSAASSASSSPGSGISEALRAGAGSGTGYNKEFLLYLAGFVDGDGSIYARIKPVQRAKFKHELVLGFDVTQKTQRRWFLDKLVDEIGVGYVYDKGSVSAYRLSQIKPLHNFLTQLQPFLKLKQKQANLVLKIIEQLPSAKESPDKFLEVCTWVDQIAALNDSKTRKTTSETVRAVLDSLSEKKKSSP
The protocol: as §1

A further data set concerns the target T3, PCS 7-8L.261 (synthetic (I-CreI derived, …)).
T3 chain: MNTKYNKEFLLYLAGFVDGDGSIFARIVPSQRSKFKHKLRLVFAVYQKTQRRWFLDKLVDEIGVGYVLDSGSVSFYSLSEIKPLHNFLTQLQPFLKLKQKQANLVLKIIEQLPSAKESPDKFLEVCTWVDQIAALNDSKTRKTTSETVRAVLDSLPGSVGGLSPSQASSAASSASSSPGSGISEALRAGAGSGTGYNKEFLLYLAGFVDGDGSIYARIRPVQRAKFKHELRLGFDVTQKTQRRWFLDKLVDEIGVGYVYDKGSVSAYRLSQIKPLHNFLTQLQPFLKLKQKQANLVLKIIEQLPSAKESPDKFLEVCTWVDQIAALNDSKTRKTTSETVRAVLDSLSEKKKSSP
The protocol:
as §1

The next data set has as its target T4, PCS 7-8L.268 (synthetic (I-CreI derived, …)).
T4 chain: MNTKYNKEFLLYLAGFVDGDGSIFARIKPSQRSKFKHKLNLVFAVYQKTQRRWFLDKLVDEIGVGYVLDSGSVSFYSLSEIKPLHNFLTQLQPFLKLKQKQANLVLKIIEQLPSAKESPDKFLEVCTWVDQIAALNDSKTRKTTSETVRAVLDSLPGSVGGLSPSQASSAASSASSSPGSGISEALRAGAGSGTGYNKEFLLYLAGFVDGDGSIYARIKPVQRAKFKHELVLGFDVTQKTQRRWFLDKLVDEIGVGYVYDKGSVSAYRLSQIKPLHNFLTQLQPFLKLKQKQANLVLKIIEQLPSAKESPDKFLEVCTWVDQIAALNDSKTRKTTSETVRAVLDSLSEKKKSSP
The protocol:
as §1

The next data set has as its target T5, PCS 7-8L.204 (synthetic (I-CreI derived, …)).
T5 chain: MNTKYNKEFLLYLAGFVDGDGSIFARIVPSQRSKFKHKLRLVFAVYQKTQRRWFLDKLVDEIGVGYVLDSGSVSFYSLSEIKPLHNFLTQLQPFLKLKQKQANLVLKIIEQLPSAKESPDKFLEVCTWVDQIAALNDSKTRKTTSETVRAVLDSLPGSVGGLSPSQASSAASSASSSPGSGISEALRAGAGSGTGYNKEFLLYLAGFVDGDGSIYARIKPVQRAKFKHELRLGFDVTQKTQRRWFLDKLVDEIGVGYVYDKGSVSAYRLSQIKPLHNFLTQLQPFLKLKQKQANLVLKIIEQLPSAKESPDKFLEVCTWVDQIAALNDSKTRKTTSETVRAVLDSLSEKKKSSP
On the procedure:
as §1

B1: PCS 7-8 recognition sequence (dsDNA)
DNA 1: TGGACCTCTTTGCCCCAGGGGA
DNA 2: TCCCCTGGGGCAAAGAGGTCCA
Consider B1, for which the activity with PCS 7-8L.262 came out at 53.5 % indels; with PCS 7-8L.209, 53.2 % indels; with PCS 7-8L.261 it was 55.4 % indels; with PCS 7-8L.268 it was 52.5 % indels; in the data set with PCS 7-8L.204 it was 58.4 % indels.
